B1: CPEB3 Ribozyme (parent)
chain: UAACAGGGGGCCACAGCAGAAGCGUUCACGUCGCAGCCCCUGUCAGAUUCUGGUGAAUCUGCGAAUUCUGCUGUAUAUCUC

The data set covers variants of B1. Description: self-cleavage, relative activity (ratio to wild type); higher = more cleavage; in vitro, sequencing. Put shortly:
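Barcoded CPEB3 ribozyme mutants, produced by rounds of error-prone PCR, self-cleaved while being transcribed with T7 RNA polymerase for 5 hours at 37°C and during a subsequent 15 min DNase I step before EDTA was added. Sequencing of template-switched cDNA on Illumina gave cleaved and total reads, and DNA sequencing assigned barcodes to variants. Each variant's relative activity is its cleaved/total read fraction divided by the unmutated ribozyme's fraction, averaged across three batches. A variant needed a minimum of 5 reads.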
As for U43C G55C, the self-cleavage came to 0.33. Consider C4U A47G, for which the self-cleavage came to 1.15. As to G22A A77U, the self-cleavage is 0.1. For C38U A65G the value was 0.32; for U25C C27U, 0.36. As to A18G C32U, the self-cleavage came out at 0.2.

In the case of A15C U43G, the self-cleavage was found to be 0.25. In the case of G10A U72C, the self-cleavage was found to be 0.39. On to U43A U69G, for which the self-cleavage was 0.82. Take U67G C79U: the self-cleavage stood at 0.51. Take U25C A75G: the self-cleavage turned out to be 0.23. Consider C12G A57G, for which the self-cleavage came to 0.41.

Consider U67A U76A, for which the self-cleavage worked out at 0.68.

U54G G63A: the self-cleavage was found to be 0.91. Turning to A56U C59A, the self-cleavage is 0.28. For G10U A47G, the self-cleavage amounted to 0.21. Take A47G C50U: the self-cleavage was determined as 0.8. As for U26C C38A, the self-cleavage was 0.19. In the case of A15U U74A it was 1.02; in that of C12G C27A, 0.09. In the case of A18G C44A it was 0.28; in that of A35U A64U, 0.48; in that of A5U G8C, 0.1. As for A28C G55U, the self-cleavage came to 0.21. In the case of A35G C37G, the self-cleavage was 0.89. In the case of C12U A13C it was 1.16; in that of G8A C38U, 0.08.

On to C23A A28G, for which the self-cleavage was determined as 0.18. For U41G U78C, the self-cleavage turned out to be 0.21. Regarding U1A A18C, the self-cleavage came out at 0.53.

U72A U80C: the self-cleavage was determined as 1.29.

Regarding A64G U80C, the self-cleavage came to 0.95. In the case of G7U A57G it was 0.19; in that of A64G U69A, 0.38. In the case of G24U C44A it was 0.18.

Turning to C23U G70A, the self-cleavage is 0.17. As for U58A U72C, the self-cleavage is 0.43. Consider A2G, for which the self-cleavage came out at 0.7. For A28G U66A the value was 0.31; for C12U U58C, 1.03.

For the variant G36U G63U, the self-cleavage is 0.12. With U25A U80C, the self-cleavage turned out to be 0.33.

With A57G U58A, the self-cleavage was determined as 0.28.

Take A20G A77C: the self-cleavage was determined as 0.79. With A18C U74C, the self-cleavage stood at 0.58.

Turning to U43A U51C, the self-cleavage turned out to be 0.88.

Consider U43A U74C, for which the self-cleavage came to 1.24. In the case of C34G U78C it was 0.22. Consider A18G C27G, for which the self-cleavage came to 0.41.

With C11U U48C, the self-cleavage stood at 0.31. In the case of U51C U67A it was 0.56; in that of G55U U60A, 0.27. On to U43A A75U, for which the self-cleavage was found to be 1.19.

For G36A, the self-cleavage is 0.29. For A65G C81U the value was 0.63; for G30A U69G, 0.19; for C12G A28U, 0.26. For C11A A35G the value was 0.46; for U26A G61C, 0.27. Turning to C29U U78C, the self-cleavage was found to be 0.44. With A5U C81G, the self-cleavage was found to be 1.29.

In the case of G42U A56G, the self-cleavage is 0.49. For G19U A20U the value was 0.42; for G6A, 0.4; for C12U U67A, 0.86. On to C44A U66G, for which the self-cleavage stood at 0.23. A57G U67G: the self-cleavage came out at 0.38. Take U43C A64U: the self-cleavage was found to be 0.29. In the case of U49C G53C, the self-cleavage came to 0.44. For A15G C39A, the self-cleavage turned out to be 0.32. With A28G A56G, the self-cleavage came to 0.43. For the variant U41C U54G, the self-cleavage was found to be 0.88.

Consider U58C C79U, for which the self-cleavage is 0.6. For A2C A65G, the self-cleavage turned out to be 0.46. On to A20U A45C, for which the self-cleavage stood at 0.12.

On to U69G C81A, for which the self-cleavage was 0.86.

Turning to C14U U54C, the self-cleavage came to 1.25. For C27A U78C the value was 0.19. Turning to U41A U54C, the self-cleavage was 0.29.

With A35G U51A, the self-cleavage is 1.32.

For U43C U51C, the self-cleavage was found to be 0.77. Regarding U25A U72G, the self-cleavage turned out to be 0.06. Take A45G G63A: the self-cleavage came out at 0.48. On to G52A U54G, for which the self-cleavage was 1.16.

Take A28G G55C: the self-cleavage was 0.39. Take G70C U72C: the self-cleavage amounted to 0.31. On to A18G A65G, for which the self-cleavage stood at 0.34. For A15G U49C the value was 0.28; for G16A A21G, 0.16; for A15G C34G, 0.29.

As to C32A U51C, the self-cleavage was 0.29. As for G16U U67C, the self-cleavage worked out at 0.09.

As for A56G U69C, the self-cleavage turned out to be 0.43.

Take A28G C34A: the self-cleavage was found to be 0.32. Turning to C29U A47U, the self-cleavage was determined as 0.24. In the case of G10C, the self-cleavage was determined as 0.25. With U49A U72A, the self-cleavage came out at 0.44. In the case of A47U U76A it was 0.82. In the case of G8U A45G it was 0.14; in that of U48A A56G, 0.33. For U67C C79U the value was 0.32. Regarding A18U U67C, the self-cleavage turned out to be 0.26. A28U U41G: the self-cleavage worked out at 0.14. Take C32U U74G: the self-cleavage came out at 0.09. Regarding A20G G30A, the self-cleavage worked out at 0.3. For the variant A5U A21G, the self-cleavage came out at 0.77. Consider U60G U72A, for which the self-cleavage turned out to be 0.22. Regarding U72C C81U, the self-cleavage was 1.23.

Regarding U1C C81G, the self-cleavage stood at 1.21.

In the case of U54A C59G, the self-cleavage was found to be 0.35. For A2G G52A, the self-cleavage turned out to be 0.65. G36C A77G: the self-cleavage was found to be 0.29. C39U U43A: the self-cleavage was 1.12. With A3G C38U, the self-cleavage was found to be 0.83. A57C U66A: the self-cleavage was found to be 0.2. With A3U G9C, the self-cleavage was 0.25. As to A45G G61A, the self-cleavage came to 0.82. As for A13G U58G, the self-cleavage turned out to be 0.2.

In the case of G55C U69C, the self-cleavage came to 0.44. Take A56G U78G: the self-cleavage came to 0.96. For the variant A18G A64U, the self-cleavage worked out at 0.29. Take G42U G53A: the self-cleavage amounted to 0.31. Regarding A15G A21G, the self-cleavage amounted to 0.49. As for A56C A64G, the self-cleavage turned out to be 0.49. As for A15U A65G, the self-cleavage stood at 0.29. Turning to A18U C38U, the self-cleavage came out at 0.31. Take U48C A77C: the self-cleavage turned out to be 0.61.

For the variant U54A C79A, the self-cleavage stood at 1.23. In the case of A3U G8A it was 0.2.

In the case of A45G U74A, the self-cleavage turned out to be 1.13. As to A5G A45U, the self-cleavage was found to be 0.36.

In the case of G10A A28U, the self-cleavage was determined as 0.17. For G53C A57G, the self-cleavage was 1.1. In the case of C23U A28C it was 0.43. In the case of A18G U69A it was 0.48; in that of G30U A65G, 0.25. Regarding U66A A75U, the self-cleavage was found to be 0.68. With U25C U60C, the self-cleavage was 0.23. With G9A C68U, the self-cleavage was 0.27. In the case of U60A A64G it was 0.43; in that of U1A G6A, 0.27; in that of A21C A65G, 0.34.

On to U25A U26A, for which the self-cleavage was 0.39. For C27A A28G the value was 0.27; for G55A U60A, 0.44.

For the variant A15U C79G, the self-cleavage was found to be 1.08. Turning to A15U G63A, the self-cleavage came out at 0.67. In the case of C12A A65C, the self-cleavage was found to be 0.32. Turning to A5G G16A, the self-cleavage came to 0.57. For U72A G73A the value was 1.28; for U48C A65C, 0.21. In the case of G8A U67G, the self-cleavage came out at 0.48.

For A35G G63U, the self-cleavage came out at 1.2. For the variant A35G G63C, the self-cleavage turned out to be 1.27. In the case of U58C U80A, the self-cleavage was 0.91. Consider A2G A47G, for which the self-cleavage was 0.48. In the case of U25G U26C it was 0.33; in that of C40A U49A, 0.18; in that of A18G A57C, 0.49. Turning to C14U A56U, the self-cleavage came to 0.5. On to G10A C71U, for which the self-cleavage was 0.08. As for U25C A77G, the self-cleavage worked out at 0.27. In the case of A20G U49C it was 0.31; in that of A18G U58A, 0.21. Take A2U A5U: the self-cleavage was determined as 1.09.

Take U80C C81U: the self-cleavage came out at 1.01. For the variant A5C U26C, the self-cleavage stood at 0.58.
